Measurements reported in PMC9107221 (2022).

B1: MoNb-3C5 (VHH)
VHH: AVQLVESGGGLVQAGGSLRLSCAASGRSFSAYTMAWFRQAPGKEREWMASIVRSGGPTYYADSVKDRFTISRENARNTAYLQMNSLKPEDTAVYYCAADLGWTYSRSPELFGSWGQGTQVTVSS
B2: Chikungunya/SL-CK1 E2 glycoprotein (natural protein)
chain: not shown

How the values were obtained:
Test in all cases: SPR
[1] = target: B2
[2] = target: BiNb-3C5 (alpaca)
[3] = target: TriNb-3C5 (alpaca)
[4] = target: BiNb-2E8 (alpaca)
[5] = target: TriNb-2E8 (alpaca)

Binder	koff [1]	koff [2]	koff [3]	koff [4]	koff [5]
B1	0.00991 s⁻¹	–	–	–	–
B2	–	0.00549 s⁻¹	0.00609 s⁻¹	0.000352 s⁻¹	0.00274 s⁻¹
